What was measured:
[1] = biological target: T1, matrix metalloproteinase-9 (MMP-9) (UniProt P14780 107-707, limits assumed); test: SPR (BiaCore-X, CM-5 chip); KA = ka/kd
[2] = biological target: T1, matrix metalloproteinase-9 (MMP-9); test: SPR (BiaCore-X, CM-5 chip); MMP-9 coupled to the chip, SEQ ID NO:5 polypeptide in PBS flowed over
[3] = biological target: T2, matrix metalloproteinase-1 (MMP-1) (UniProt P03956 100-469, limits assumed); test: fluoresceinated collagen hydrolysis assay, Dixon plot, competitive inhibition assumed; target MMP-1
T2 sequence (looked up): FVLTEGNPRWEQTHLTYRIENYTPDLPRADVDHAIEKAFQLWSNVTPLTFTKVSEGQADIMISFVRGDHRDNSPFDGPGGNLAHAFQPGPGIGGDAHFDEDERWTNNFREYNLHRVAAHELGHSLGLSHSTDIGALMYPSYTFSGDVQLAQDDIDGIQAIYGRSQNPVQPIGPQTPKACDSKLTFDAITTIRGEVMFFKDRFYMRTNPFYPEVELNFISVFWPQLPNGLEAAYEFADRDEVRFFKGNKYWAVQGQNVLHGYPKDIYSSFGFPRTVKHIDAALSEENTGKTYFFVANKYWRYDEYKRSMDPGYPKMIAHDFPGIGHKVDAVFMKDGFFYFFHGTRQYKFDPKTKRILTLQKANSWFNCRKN
Method: (§1) Inhibition of MMPs: The assay employed measured the enzymatic hydrolysis of fluoresceinated collagen by MMP-9 or other matrix metalloproteinases as a function of time. Fluoresceinated collagen at a concentration of 5 μM was added to reaction buffer (50 mM Tris-HCl (pH 7.6), 150 mM NaCl, 5 mM CaCl_2, 0.1 mM NaN_3) and was placed into a Spectrosil quartz fluorimeter cuvette. MMP at a concentration of 0.1 μM was mixed with varying amounts of polypeptide inhibitor (SEQ ID NO:5 or SEQ ID NO:20) and incubated at 25° C. for 10 minutes in order to effect binding. The protein mixture was added to the collagen substrate, and mixed. Fluorescence emission intensity at 520 nm was measured as a function of time using an excitation wavelength of 495 nm in a Shimadzu RF5301 fluorimeter. The fluorescein release assay was used to determine the inhibitory constant (K_i) of the protein based matrix metalloproteinase inhibitor ([I]) according to Segel (1993) by using Dixon plots (1/v vs. [I]), where: […]

[4] = biological target: T1, matrix metalloproteinase-9 (MMP-9); test: fluoresceinated collagen hydrolysis assay, Dixon plot, competitive inhibition assumed; target MMP-9
Method: as §1

T1 sequence (P14780 107-707 limits assumed): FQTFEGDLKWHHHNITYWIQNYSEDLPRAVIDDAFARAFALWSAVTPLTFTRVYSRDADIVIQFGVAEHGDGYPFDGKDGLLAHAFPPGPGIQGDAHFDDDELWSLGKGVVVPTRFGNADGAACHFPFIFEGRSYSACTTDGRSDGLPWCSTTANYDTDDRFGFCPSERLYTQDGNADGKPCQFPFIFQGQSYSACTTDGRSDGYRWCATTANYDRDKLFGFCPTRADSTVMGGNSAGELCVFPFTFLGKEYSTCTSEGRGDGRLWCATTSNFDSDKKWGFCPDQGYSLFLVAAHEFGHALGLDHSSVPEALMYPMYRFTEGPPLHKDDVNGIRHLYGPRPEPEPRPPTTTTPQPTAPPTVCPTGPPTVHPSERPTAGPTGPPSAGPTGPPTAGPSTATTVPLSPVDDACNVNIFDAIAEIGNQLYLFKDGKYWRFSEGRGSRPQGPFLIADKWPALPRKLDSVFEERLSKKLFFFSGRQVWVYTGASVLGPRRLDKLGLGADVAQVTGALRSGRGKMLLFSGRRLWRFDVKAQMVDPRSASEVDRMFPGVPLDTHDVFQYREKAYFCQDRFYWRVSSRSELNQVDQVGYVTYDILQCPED

Ka [1]: 1.5e+08 M⁻¹
koff [2]: 0.0013 s⁻¹
kon [2]: 200000 M⁻¹ s⁻¹
Ki [3]: 12 nM
Ki [4]: 16 nM
B1: SEQ ID NO:5 polypeptide (DST; Delta Synthetic TIMP), purified Fraction IV protein (designed binder)
chain: CSCSPVHPQQAFSNADVVIRAKAVSEKEVDSGNDIYGNPIKRIQYEIKQIKMFKGPEKDIEFIYTAPSSAVCGVSLDVGGKKEYCIAGKAEGDGKMHITLCDFICPW
notes: It was expressed in E. coli as an MBP fusion and cleaved with Factor Xa; It is monomeric by gel filtration; Three disulfide bonds; also called DST protein

Reference: patent US7060795 (KIMBERLY CLARK WORLDWIDE, dated 2006)
